Data from PMC6138639, “The ZZ-type zinc finger of ZZZ3 modulates the ATAC complex-mediated histone acetylation and gene activation” (Nature Communications, 2018).
Each block holds one binder with its values, some of them ahead of it. Where no end group is shown, it is not given here.

Columns and labels:
Conditions in all cases: both partners purified
[1] = biological target: T1, ZZZ3 ZZ domain (aa 816–874) (human, UniProt Q8IYH5 816-874); experiment: NMR structure; solution structure; 2 mM 13C/15N-labeled ZZZ3 (816–874) with 10 mM H3 (1–12) or 4 mM H3K4ac (1–8); 298 K; 20 mM Tris–HCl pH 7.0, 100 mM NaCl, 5 mM DTT
T1 construct: 13C/15N isotope-labelled sample for the NMR structures
T1 sequence (looked up): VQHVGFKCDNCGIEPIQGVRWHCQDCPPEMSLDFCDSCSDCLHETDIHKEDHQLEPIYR

[2] = biological target: T2, ZZZ3 ZZ domain (aa 800–903), GST cleaved (human, UniProt Q8IYH5 800-903); experiment: MST; displacement assay: unlabeled peptide added to a preformed complex of 5 μM ZZ (aa 800–903) and 80 nM C-terminal fluorescein-labeled H3 (1–12); 20 mM Tris–HCl pH 7.0, 150 mM NaCl, 3 mM DTT
T2 construct: ZZ domain of human ZZZ3, aa 800–903; also called WT ZZZ3 ZZ; source: E. coli BL21 (DE3) RIL, purified (glutathione Sepharose, PreScission cleavage, size-exclusion chromatography)
T2 sequence (looked up): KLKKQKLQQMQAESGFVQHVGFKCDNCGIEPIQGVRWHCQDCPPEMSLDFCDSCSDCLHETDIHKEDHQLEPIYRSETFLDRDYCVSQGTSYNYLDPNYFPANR

[3] = biological target: T3, GST-ZZZ3 ZZ domain (amino acids 800–903) (human, UniProt Q8IYH5 800-903); experiment: pull-down; peptide pulldown: 1 µg biotinylated histone peptide with 1–2 µg GST-fused protein in 50 mM Tris–HCl 7.5, 300 mM NaCl, 0.1% NP-40, overnight; streptavidin beads; western blot
T3 construct: ZZ-type zinc finger domain of human ZZZ3, amino acids 800–903, in pGEX-6P1; also called GST-fused ZZZ3 ZZ; source: E. coli BL21 (DE3) RIL, purified (glutathione Sepharose 4B)
T3 sequence (looked up): T2 sequence (looked up)

B3: histone H3 peptide of the N-terminal eight amino acids, biotinylated (peptide, UniProt P68431 2-9, looked up)
peptide: ARTKQTAR
modifications: also: biotinylated, position not given here
notes: histone H3, N-terminal eight amino acids; also called The N-terminal eight amino acids of H3; source: synthetic peptide (CPC and Scilight Biotechnology)
binding result [3]: binds

B4: H3K4ac (1–12) peptide, unlabeled (peptide, UniProt P68431 2-13, looked up)
peptide: ARTK(Ac)QTARKSTG
notes: histone H3, aa 1–12; source: synthetic peptide
fold enhancement of binding over the unmodified H3 peptide [2]: 3 fold

Now from value to binder:

binding result [1]: binds
B1: H3K4ac peptide (aa 1–8) (peptide, UniProt P68431 2-9, looked up)
peptide: ARTK(Ac)QTAR
notes: histone H3, aa 1–8; also called H3K4ac (1–8); source: synthetic peptide

binding result [1]: binds | binding result [2]: binds
B2: unmodified histone H3 tail peptide (aa 1–12) (peptide, UniProt P68431 2-13, looked up)
peptide: ARTKQTARKSTG
notes: histone H3, aa 1–12; also called H3 (1–12); H3 peptide; source: synthetic peptide
